Assay results published in patent US20100056392A1, “MICROSTRUCTURE AND MICRODOMAIN MICROARRAYS, METHODS OF MAKING SAME AND USES THEREOF” (priority 2005, published 2010).
{AminoPEG9} = amino group attached through a PEG9 spacer, used for covalent surface attachment

T1: transcription factor GAL80 (Saccharomyces cerevisiae, UniProt P04387)
T1 sequence (P04387 1-435): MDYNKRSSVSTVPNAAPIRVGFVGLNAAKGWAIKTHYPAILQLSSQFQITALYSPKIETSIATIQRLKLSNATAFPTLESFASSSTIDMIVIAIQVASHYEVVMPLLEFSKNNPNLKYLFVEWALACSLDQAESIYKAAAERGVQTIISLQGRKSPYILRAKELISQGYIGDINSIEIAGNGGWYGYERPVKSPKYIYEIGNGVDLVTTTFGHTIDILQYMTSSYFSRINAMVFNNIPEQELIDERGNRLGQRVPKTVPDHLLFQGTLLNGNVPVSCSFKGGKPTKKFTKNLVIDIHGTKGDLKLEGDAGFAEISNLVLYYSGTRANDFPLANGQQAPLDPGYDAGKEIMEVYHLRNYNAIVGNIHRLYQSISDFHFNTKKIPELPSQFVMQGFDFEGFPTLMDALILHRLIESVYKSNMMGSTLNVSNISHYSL

B1: Consensus DNA: covalently bound DNA containing three repeats of the consensus sequence for the transcription factor AP-1 (c-JUN), hybridized to Texas Red complement (nucleic acid)
DNA: CGCTTGATGAGTCAGCCGGAACGCTTGATGAGTCAGCCGGAACGCTTGATGAGTCAGCCGGAAGCTTCCGGTAAATTT
modifications: DNA, 5' {AminoPEG9}, backbone not given here; further chemistry not fully specified

Columns and labels:
[1] = biological target: T1, transcription factor GAL80; conditions: template peptide of the array; cited from earlier work
[2] = biological target: T2, transcription factor AP-1 (c-JUN) (Homo sapiens, UniProt P05412); test: rhAP1 binding to DNA grafted polymer microstructures, in situ trypsin digest and MALDI-MS peptide mass fingerprinting; conditions: rhAP1 0.3 ug/ml 1:1 with buffer Z, 0.5 hrs at RT and 2 hrs at 4 C; identified by MALDI-MS, not in control
T2 construct: purchased Promega Corp (Madison, Wis.)
T2 sequence (P05412 whole entry): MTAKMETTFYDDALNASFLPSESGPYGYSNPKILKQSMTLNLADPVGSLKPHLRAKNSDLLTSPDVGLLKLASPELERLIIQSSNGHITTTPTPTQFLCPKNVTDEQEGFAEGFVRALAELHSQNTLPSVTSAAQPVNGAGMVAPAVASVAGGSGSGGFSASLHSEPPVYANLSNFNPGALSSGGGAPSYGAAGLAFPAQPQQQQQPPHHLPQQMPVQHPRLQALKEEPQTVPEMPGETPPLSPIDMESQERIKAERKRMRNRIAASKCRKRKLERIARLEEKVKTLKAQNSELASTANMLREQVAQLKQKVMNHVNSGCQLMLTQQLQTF
Experimental: This array was then washed with sterile water and a 1:1 mixture of rhAP1 protein 0.3 μg/ml and buffer Z (25 mM HEPES K+ pH 7.8, 12.5 mM MgCl2, 1 μM DTT, 20% glycerol, 0.1 Nonidet p40) and 2 μL was spotted onto all 5 microstructures. This was allowed to bind for 0.5 hrs at RT and 2 hrs at 4 C and then rinsed with sterile water at 4° C. The fluorescence was rechecked and the treatment spots were still fluorescent. 2 μL of a 1:100 dilution of 10 μg/mL trypsin in 25 mM ammonium carbonate and sterile water was spotted onto one feature and the array was left at 37° C. overnight.
A slightly subsaturated solution of α-cyano-4-hydroxycinnamic acid solution of 1:2 acetonitrile:water with 1% TFA was spotted, 2 μL per feature on to the array and left in hybridization chamber for 45 min. This was then dried and spotted with 1 μL of a saturated solution of α-cyano-4-hydroxycinnamic acid in 1:1 acetonitile:water with 0.1% TFA. […] Ions were only detected coming from the trypsin digest array element.
This array was then washed with sterile water and a 1:1 mixture of rhAP1 protein 0.3 ug/ml and buffer Z (25 mM HEPES K+ pH 7.8, 12.5 mM MgCl2, 1 uM DTT, 20% glycerol, 0.1 Nonidet p40) and 2 uL was spotted onto all 5 microstructures. […] The fluorescence was rechecked and the treatment spots were still fluorescent. […]

Molecule	binding to transcription factor GAL80 [1]	binding of transcription factor AP-1 to immobilized consensus DNA [2]
EGEWTEGKLSLR [template for 8,000 array variants substituted at positions 1, 3, 6]	known to bind	
B1		bind the transcription factor AP-1
